Laboratory results from US20040151731A1.

Target: HLA-A, B, C on presenting PBL
Experiment: cell-based or functional assay

reduction in γIFN secretion of Long Term AAA cells with PBL presenting cells and collagen: 74%
Substance: W6/32 (anti-HLA-A, B, C) monoclonal antibody
